From US20240352134A1

Legend:
human CCR8 (human) [1] = biological target: human CCR8 (human) (UniProt P51685); assay: cell-based or functional assay
human CCR8 (human) [2] = biological target: human CCR8 (human) (UniProt P51685); assay: binding affinity EC50, comparison of Table 12 (FACS on CCR8-expressing cells)

Sequence of human CCR8 (human) (P51685 whole entry): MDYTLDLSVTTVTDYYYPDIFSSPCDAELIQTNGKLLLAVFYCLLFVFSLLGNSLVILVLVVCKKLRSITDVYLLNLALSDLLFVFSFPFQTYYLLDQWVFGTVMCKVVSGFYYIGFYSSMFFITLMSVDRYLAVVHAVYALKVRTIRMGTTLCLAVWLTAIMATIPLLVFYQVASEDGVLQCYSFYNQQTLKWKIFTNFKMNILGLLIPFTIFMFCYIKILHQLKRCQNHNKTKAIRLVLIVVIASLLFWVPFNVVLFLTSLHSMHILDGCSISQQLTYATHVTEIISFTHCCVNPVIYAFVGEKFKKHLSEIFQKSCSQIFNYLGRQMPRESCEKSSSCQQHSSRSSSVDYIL

B1: SRF-114 (antibody, from another filing, V domains shown)
VH: QVQLVQSGAEVKKPGASVKVSCKASGYTFTSYYMHWVRQAPGQGLEWMGIINPSGGSTSYAQKFQGRVTMTRDTSTSTVYMELSSLRSEDTAVYYCARAVRNRFRFDYWGQGTLVTVSS
VL: QSALTQPASVSGSPGQSITISCTGTSSDVGSYNLVSWYQQHPGKAPKLMIYEVSKRPSGVSNRFSGSKSGNTASLTISGLQAEDEADYYCSSYAGSSTFVVFGGGTKLTVL
B1 showed a Signal block Ca2+ (human CCR8 (human) [1]) of 179 nM and an EC50 (human CCR8 (human) [2]) of 3.2 nM.
